Assays:
[1] = target: endogenous mouse SIRPα of wildtype C57BL/6 mice (NP_031573.2) (mouse (C57BL/6)) (UniProt P97797); test: flow cytometry; CD47 protein on peritoneal cavity cells of wildtype C57BL/6 mice, detected with anti-CD47 human antibody and AF647-Anti-hIgG
[2] = target: endogenous mouse SIRPα of wildtype BALB/c mice (mouse (BALB/c)) (UniProt P97797); test: flow cytometry; CD47 protein on peritoneal cavity cells of wildtype BALB/c mice, detected with anti-CD47 human antibody and AF647-Anti-hIgG

UniProt P97797, sequence (P97797 other isoform, or with tags, fused parts or gaps): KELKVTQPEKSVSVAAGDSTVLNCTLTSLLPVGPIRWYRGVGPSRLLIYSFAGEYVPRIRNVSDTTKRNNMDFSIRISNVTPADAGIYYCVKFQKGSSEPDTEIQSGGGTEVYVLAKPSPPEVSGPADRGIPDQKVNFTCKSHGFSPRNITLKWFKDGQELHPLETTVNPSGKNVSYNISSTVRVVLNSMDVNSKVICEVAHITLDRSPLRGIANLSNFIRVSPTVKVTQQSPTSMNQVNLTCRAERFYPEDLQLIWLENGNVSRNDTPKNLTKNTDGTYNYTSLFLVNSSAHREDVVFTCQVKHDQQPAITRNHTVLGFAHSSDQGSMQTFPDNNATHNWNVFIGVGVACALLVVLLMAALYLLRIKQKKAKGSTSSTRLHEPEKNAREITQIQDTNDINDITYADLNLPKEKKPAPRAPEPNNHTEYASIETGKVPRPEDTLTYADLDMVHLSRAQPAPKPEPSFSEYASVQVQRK

geometric mean of flow cytometry signal [1]: 100
geometric mean of flow cytometry signal [2]: 100
Substance: mouse CD47 proteins (added to peritoneal cavity cells, Example 16) (ligand)
